The test addresses wild-type PaCLPP (Podospora anserina (endogenous in P. anserina mitochondria)). Briefly: native gel or EMSA; BN-PAGE of mitochondrial protein extracts from P. anserina strains, western blot with a PaCLPP- or HsCLPP-specific antibody. (A gel shift assay detects complexes by their altered migration in electrophoresis.)

Where “and” joins values, the source holds several entries; their conditions need not be identical. Equal values may be shown once.

We go through one substance from PMC4683621.

Turning to wild-type PaCLPP (enzyme), the stoichiometry N (commonly a count of units in the complex or per binding partner) was 7 and 14.
